Source: patent US20150368327A1 (YOKOHAMA CITY UNIVERSITY, published 2015)

Biological target: T1, ovalbumin (OVA) (UniProt P01012 2-386)
T1 sequence (looked up): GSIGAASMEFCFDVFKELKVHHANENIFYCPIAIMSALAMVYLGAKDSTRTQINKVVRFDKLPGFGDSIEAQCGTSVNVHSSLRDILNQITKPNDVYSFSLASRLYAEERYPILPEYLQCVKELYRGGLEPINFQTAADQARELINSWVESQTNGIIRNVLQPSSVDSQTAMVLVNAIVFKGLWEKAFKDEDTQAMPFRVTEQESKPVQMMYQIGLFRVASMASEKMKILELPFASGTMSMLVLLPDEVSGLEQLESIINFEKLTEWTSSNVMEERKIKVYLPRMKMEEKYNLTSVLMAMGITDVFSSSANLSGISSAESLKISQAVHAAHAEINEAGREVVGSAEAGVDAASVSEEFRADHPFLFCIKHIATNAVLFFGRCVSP
Assay: antigen solid phase ELISA: coated ovalbumin (negative control), anti-mouse IgG2A-HRP, OD450
Method: The antigen specificity of the purified antibody was measured by ELISA with PBS buffer. 2.5 μg/mL of antigen was dispensed to a 96 well Maxi Sorp Plate (Nunc) and reacted overnight at 4° C. to coat the plate with an antigen (mouse Sema 3A protein). Ovalbumin, rabbit IgG and skim milk were immobilized in the plate as negative controls in similar manner in order to examine specificity of antibodies. The next day, the plate was washed three times with 200 μL/well of washing solution (PBS containing 0.05% Tween 20), to which was added 200 μL/well of blocking solution (PBS containing 0.5% skim milk) and the mixture was reacted for 30 minutes. The plate was washed three times with 200 μL/well of washing solution, to which was added 100 μL of culture supernatant containing antibody and the mixture was reacted for one hour. The plate was washed five times with 200 μL/well of washing solution, to which was added 100 μL/well of diluent in which anti-mouse IgG2A goat antibody labeled with horseradish peroxidase (HRP) (Bethyl Laboratories, Inc.) was diluted 2000 times with PBS buffer and the mixture was reacted for one hour. […] The absorbance was measured at 450 nm using μQuantBiomolecular Spectrometer (Bio Tek Instruments, Inc.) Results are shown in FIG. 2.

B1: Anti-Sema 3A avian-mouse chimeric antibody (clone No. 4-2-derived) (antibody, mouse IgG2a)
heavy: AVTLDESGGGLQTPGGALSLVCKASGFTFSSYPMGWVRQAPGKGLEWVAGIDDDGDSDTRYAPAVKGRATISRDNGQSTVRLQLNNLRAEDTGTYYCAKHTGIGANSAGSIDAWGHGTEVIVSSAKTTAPSVYPLAPVCGDTTGSSVTLGCLVKGYFPEPVTLTWNSGSLSSGVHTFPAVLQSDLYTLSSSVTVTSSTWPSQSITCNVAHPASSTKVDKKIEPRGPTIKPCPPCKCPAPNLLGGPSVFIFPPKIKDVLMISLSPIVTCVVVDVSEDDPDVQISWFVNNVEVHTAQTQTHREDYNSTLRVVSALPIQHQDWMSGKEFKCKVNNKDLPAPIERTISKPKGSVRAPQVYVLPPPEEEMTKKQVTLTCMVTDFMPEDIYVEWTNNGKTELNYKNTEPVLDSDGSYFMYSKLRVEKKNWVERNSYSCSVVHEGLHNHHTTKSFSRTPGK
light: ALTQPASVSANLGGTVKITCSGGGSYTGSYYYGWYQQKSPGSALVTMIYYNNKRPSDIPSRFSGSLSGSTNTLTITGVRADDEAVYFCGSADNSGDAFGAGTTLTVLGQPKSSPSVTLFPPSSEELETNKATLVCTITDFYPGVVTVDWKVDGTPVTQGMETTQPSKQSNNKYMASSYLTLTARAWERHSSYSCQVTHEGHTVEKSLSRADCS
notes: Avian variable regions of clone No. 4-2 with mouse IgG2a heavy and mouse lambda light constant regions; also called anti-Sema 3A avian-mouse chimeric antibody (IgG)
- binding result: no binding (tested: 100 ng/µL)
